# Experimental data from patent US8591908B2, “Immunogen for preparation of therapeutic vaccines or drugs for treatment of hepatitis B and the producing method and use thereof” (Institute of Immunology, PLA, priority 2002, dated 2013).
# Ends that are not written are not given here. * marks the point of attachment. Palmitoyl = CCCCCCCCCCCCCCCC(=O)*
# Key:
# enzyme-labeled antibody = assay: Potency/specific activity of stock solution or semifinished product, enzyme-linked plate; assay type: binding; details: stock solution after reversed phase chromatography; batches 1-3 and x ± Sx
# Excerpt: Chromatography column AP5 20/275 POROS 50 R1 was used in the batch production. After peptide-resin was cleaved and preliminarily purified, the collected εPA44 sample was divided into 7 parts for high purification, and the effects and reproducibility for batch purification of εPA44 stock solution were furthered studied. […] The collected elution peak fractions of εPA44 were pooled and mixed homogenously, aliquots were removed for analysis. If the sample met the set standards, it was used as the stock solution and was stored at −20° C. until use. The output, yield and specific activity of the product were calculated based on the measured data.
# The semifinished product to be tested was diluted to a concentration within the measurable range of the potency determination. An enzyme-linked plate( ? ) was coated, blocked, bound by enzyme-labeled antibody, and developed. The absorbance at 450 nm (A450 nm) was detected by an enzyme-labeling device, and compared to the reference of the product. The potency of εPA44 in the extract of the sample was determined, and the specific activity of the semifinished product ( ? ) was calculated.
# The reference of the product was 10-fold diluted with 50% ethanol, and then was two-fold serially diluted. 100 μl dilutions were separately added to the wells on the 96-well enzyme-linket immunosorbent assay plate, each well was repeated in triplicate. Coating was carried out in refrigerator at 4° C. for 20-24 hours. The stock solution of εPA44 was diluted and coated similarly to the reference. 100 μl of 50% ethanol was added to negative control wells. After the coating was completed, 200 μl 1% calf serum was added to each well, and blocked in refrigerator at 4° C. for 2 hours. The enzyme-linket immunosorbent assay plate was dried in air, 80 μl enzyme-labeled antibody was added to each well and incubated at 37° C. for 40 minutes. The plate was washed with wash solution for 4 times and dried in air, then 50 μl of substrate solution A and 50 μl of substrate solution B were added to each well and developed at 37° C. for 15 minutes under protection from light. Then 50 μl of stop solution was added to each well. A450 nm values were detected on 550 type enzyme-linket immunosorbent assay detector. The median dilution times of the reference and the samples were calculated by program or linear regression method based on the median effect value of the reference of εPA44 (median maximum absorbance), and the potency of the test sample and the specific activity of the product were calculated according to the following formulas.
# [1] = Size shrinkage of liposome after lyophilization; assay type: physicochemical; details: 5% mannitol/10 mmol/L phosphate buffer
# Excerpt: In the Table 16, all of the formulations 1-11 contained a buffer of 5% mannitol/10 mmol/L phosphate(KH2PO4/Na2HPO4 was 60/40)
# When the addition amount of the concentrated liposome solution was 25-50% (v/v) of the semifinished product liquor for subpackage, addition of 1% human serum albumin as excipient will result in better lyophilization effects. Thus, when the volume of the concentrated liposome solution was equal to the volume of the emulsion (W/O), the volume of the concentrated liposome solution was determined as 37.5% (v/v) of the volume of the product liquor for subpackage, i.e., an average level of the amount of the concentrated liposome solution. In this case, the concentrations of the adjuvants in the product liquor for subpackage should meet the requirements as set forth in Table 16-4. The volume of subpackage should be 1 ml and meet the requirements for the formulation of lyophilized liposome injection. In practice, the volume of the concentrated liposome solution usually is greater than the volume of emulsion (W/O), so the volume of the product liquor for subpackage may be increased. Thus, the actual subpackage volume is calculated according to the following formula.
# [2] = Encapsulation rate of liposome (RP-HPLC); assay type: physicochemical; details: L9(3^4) orthogonal test of lipid components and liposome forming conditions; 6 mmol/L vitamin E
# Description: Liposome was prepared by a double emulsion method. The lipid components were dissolved in ethyl ether solution, mixed with the concentrate of the present compound to form an emulsion (W/O), then poured into phosphate buffer (PB) or water under a controlled temperature and stirred to form a further emulsion (W/O/W), and liposome was gradually formed as ethyl ether gradually volatilized. The product in free form and aggregate and precipitate in the liquid was removed by concentration in ultrafiltration apparatus and dialysis (the dialysis must be 200 folds or higher) and by filtration via a 10 μm microporous filter. Aliquots were removed for reversed phase high performance liquid chromatography (RP-HPLC) to determine the encapsulation amount, and the encapsulation rate was calculated by comparing to the incorporated amount. L9(3^4) orthogonal table was used in the experimental design.
# Based on the formulation and conditions determined by said orthogonal test, the effects of the concentration of the immunogen solution on the encapsulation rate of the liposome were compared. […]
# HBV-DNA, HBeAg and HBsAg = assay: FIG. 5: virus inhibition test with PBMC of HBV carrier and hepatitis patients; assay type: cell-based, hepatitis B virus; details: supernatant, with increase of co-culture time
# Excerpt: FIG. 5 indicated the antiviral effects of the immunogen of the present invention. Peripheral blood mononuclear lymphocytes were separately isolated from fresh peripheral bloods of a HLA-A2+HBV carrier, a patient suffering from acute hepatitis, and a patient suffering from chronic hepatitis, and were subjected to virus inhibition tests to measure the copy numbers of HBV-DNA (A) and secretion levels of HBeAg and HBsAg in the supernatant (B, C).
# [3] = system: peripheral blood mononuclear lymphocytes of HLA-A2+ healthy person; details: culture supernatant, 24 h after last stimulation
Substance,degree of size shrinkage of the liposome after lyophilization [1],Encapsulation rate [2],further results
CH3(CH2)14COKSSYIKANSK FIGITEAAAMQWNSTALHQALQDPGGGDPRVRGLYFPA (Palmitoyl-KSSYIKANSKFIGITEAAAMQWNSTALHQALQDPGGGDPRVRGLYFPA) [SEQ ID NO:72],,,Specific activity (enzyme-labeled antibody): 11689.76±1503.57 U/mg
3 (KSSQYIKANSKFIGITEGGGDPRVRGLYFPA; not fully specified (N-terminus); printed as CH3CH2CH═CHCH2CH═CH(CH2)7CO7KSSQYIKANSKFIGITEGGGDPRVRGLYFPA; also: N-terminal acyl on K unclear: CH3(CH2)7CH=CH(CH2)-CO or CH3CH2CH=CHCH2CH=CH(CH2)7CO) [compound 3],+++,44.92%,
CH3(CH2)14COKSSQYIKANSKFIGITEAAAFLPSDFFPSVGGGCTKPTDGNCT (Palmitoyl-KSSQYIKANSKFIGITEAAAFLPSDFFPSVGGGCTKPTDGNCT; cysteine pairing not given here) [SEQ ID NO:4],,,"copy numbers of HBV-DNA (HBV-DNA, HBeAg and HBsAg): inhibited in an obvious dose-effect dependence relation; secretion level of HBeAg (HBV-DNA, HBeAg and HBsAg): inhibited in an obvious dose-effect dependence relation; secretion level of HBsAg (HBV-DNA, HBeAg and HBsAg): inhibited in an obvious dose-effect dependence relation"
9 (MQWNSTALHQALQDP; Hepatitis B virus) [compound 9],+,109.4%,
1 (Palmitoyl-KSSQYIKANSKFIGITEAAAFLPSDFFPSVGGGDPRVRGLYFPA) [compound 1],++++,93.16%,
7 (PADRE; Th cell epitope from tetanus toxoid or variant species thereof) [compound 7],−,53.75%,
10 (SILSKTGDPV; Hepatitis B virus) [compound 10],+,,
6 (QYIKANSKFIGITE; Th cell epitope from tetanus toxoid or variant species thereof) [compound 6],+++,79.26%,
CH3CH2CH═CHCH2CH═CH(CH2)CH═CH(CH2)7COKSSPAREGGGWLSLLVPFVSSSDP RVRGLYFPA [SEQ ID NO:2],,,effect of inducing the secretion of IL-4 [3]: not obvious; secretion of IFN-γ [3]: induce the secretion of IFN-γ in a notable dose-effect dependence relation
8 (PLGFFPDH; Hepatitis B virus) [compound 8],−,79.29%,
4 (Palmitoyl-KSSQYIKANSKFIGITEAAAFLPSDFFPSVGGGCTKPTDGNCT; cysteine pairing not given here) [compound 4],++,69.48%,
5 (Palmitoyl-KSSQYIKANSKFIGITEAAASIVSPFIPLLGGGDPRVRGLYFPA) [compound 5],+++,97.27%,
